In this assay the target is Strep-HP1542 (bactofilin HP1542 of H. pylori reference strain 26695, N-terminal Strep-tagged version) (Helicobacter pylori strain 26695). Put plainly: cross-linking; glutaraldehyde dilutions 10% to 0.01% added to strep-tagged protein, 10 min at 23°C; SDS-PAGE and immunoblotting.

“And” between values parts separate entries of the source, which are not always exact repeats. Equal entries are not always repeated.

This is an account of results in paper PMC6590870.

By stoichiometry N is commonly meant the number of molecules, sites or subunits per partner or assembly. On to “Strep-HP1542 (bactofilin HP1542 of H. pylori reference strain 26695, N-terminal Strep-tagged version) (natural protein)”, for which the stoichiometry N was 2 and 3.
